According to article PMC2783259:
Where two headings read alike, the source gives them in different places.

Tests used:
[1] = target: human FcγRIA (CD64) co-expressed with the common γ chain on CV-1 cells (human) (UniProt P12314); experiment: inhibition of rosette formation
[2] = target: human FcγRIIA (CD32), R131 allotype, on CV-1 cells (human); experiment: inhibition of rosette formation
[3] = target: The FcγRIA and FcγRIIA transfectants; experiment: rosette formation
[4] = target: human FcγRIIA (CD32), H131 allotype, on CV-1 cells (human) (UniProt P12318); experiment: inhibition of rosette formation
[5] = target: human FcγRIA (CD64) co-expressed with the common γ chain on CV-1 cells (human) (UniProt P12314); experiment: inhibition of rosette formation; remark: listed apart in the source
[6] = target: human FcγRIIA (CD32), H131 allotype, on CV-1 cells (human) (UniProt P12318); experiment: inhibition of rosette formation; remark: listed apart in the source

Substance | percent inhibition of rosette formation [1] [%] | percent inhibition of rosette formation [2] [%] | other results
human IgG3 myeloma protein, heat-aggregated (antibody) | > 90 | > 90 | –
human IgG1 myeloma protein, heat-aggregated (antibody) | > 90 | > 90 | –
rabbit IgG on opsonized sheep red blood cells (SRBC) (antibody) | – | – | percent rosette formation [3]: 82 to 97%
human IgG2 myeloma protein, heat-aggregated (antibody) | – | – | percent inhibition of rosette formation [4]: 60%; percent inhibition of rosette formation [5]: 20%; percent inhibition of rosette formation [6]: 65%
